# According to US20220127354A1 (Amgen, published 2022):
# T1: ckCDH19(1-43)::FLAG::ckCDH19(44-141)::huCDH19(142-249)::ckCDH19(250-776) (construct L, Hu EC2) (human/chicken chimera)
# T1 construct: leader (1-43 of the entry) left out
# T1 chain: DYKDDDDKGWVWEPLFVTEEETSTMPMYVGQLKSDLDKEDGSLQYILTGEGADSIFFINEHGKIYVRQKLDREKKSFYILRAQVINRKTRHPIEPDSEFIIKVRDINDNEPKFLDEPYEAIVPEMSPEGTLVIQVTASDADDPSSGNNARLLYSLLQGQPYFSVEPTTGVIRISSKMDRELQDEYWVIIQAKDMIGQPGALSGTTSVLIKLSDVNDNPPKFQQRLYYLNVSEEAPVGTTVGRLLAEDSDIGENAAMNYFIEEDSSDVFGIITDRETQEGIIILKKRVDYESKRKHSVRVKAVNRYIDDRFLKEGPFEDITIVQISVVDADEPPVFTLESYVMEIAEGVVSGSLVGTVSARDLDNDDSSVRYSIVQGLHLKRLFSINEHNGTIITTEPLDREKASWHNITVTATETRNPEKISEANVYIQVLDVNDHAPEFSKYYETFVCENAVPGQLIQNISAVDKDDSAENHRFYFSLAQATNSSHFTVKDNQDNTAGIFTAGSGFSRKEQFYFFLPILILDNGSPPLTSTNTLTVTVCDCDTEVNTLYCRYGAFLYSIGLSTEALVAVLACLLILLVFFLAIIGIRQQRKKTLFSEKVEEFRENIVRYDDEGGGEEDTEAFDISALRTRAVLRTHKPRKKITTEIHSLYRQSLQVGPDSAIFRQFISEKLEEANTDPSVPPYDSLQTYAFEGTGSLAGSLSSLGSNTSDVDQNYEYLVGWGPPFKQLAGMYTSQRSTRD
# T2: ckCDH19(1-43)::FLAG::ckCDH19(44-468)::huCDH19(464-772) (construct O, Hu EC5) (human/chicken chimera)
# T2 construct: leader (1-43 of the entry) left out
# T2 chain: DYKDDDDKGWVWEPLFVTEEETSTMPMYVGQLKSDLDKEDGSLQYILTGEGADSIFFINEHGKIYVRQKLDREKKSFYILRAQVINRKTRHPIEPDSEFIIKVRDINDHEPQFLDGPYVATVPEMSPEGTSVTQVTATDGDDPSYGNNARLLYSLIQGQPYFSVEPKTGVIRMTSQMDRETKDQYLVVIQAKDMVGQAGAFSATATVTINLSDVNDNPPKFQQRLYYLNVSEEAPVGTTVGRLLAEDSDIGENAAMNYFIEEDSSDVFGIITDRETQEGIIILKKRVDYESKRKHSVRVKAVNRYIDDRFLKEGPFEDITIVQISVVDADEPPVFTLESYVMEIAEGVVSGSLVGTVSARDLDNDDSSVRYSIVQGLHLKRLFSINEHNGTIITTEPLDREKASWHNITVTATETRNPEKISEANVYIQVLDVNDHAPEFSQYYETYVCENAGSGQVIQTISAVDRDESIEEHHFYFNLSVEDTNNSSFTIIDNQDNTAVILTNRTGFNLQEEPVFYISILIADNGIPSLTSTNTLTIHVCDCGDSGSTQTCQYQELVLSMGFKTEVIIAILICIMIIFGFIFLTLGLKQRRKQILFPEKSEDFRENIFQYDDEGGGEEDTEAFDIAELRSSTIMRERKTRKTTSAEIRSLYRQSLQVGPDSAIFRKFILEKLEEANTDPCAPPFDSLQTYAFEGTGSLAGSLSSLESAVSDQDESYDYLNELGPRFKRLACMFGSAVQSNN
# T3: ckCDH19(1-43)::FLAG::ckCDH19(44-776) (construct J, Ck EC1-5) (chicken)
# T3 construct: the entry holds leader (1-43), FLAG and ckCDH19(44-776); leader left out; also called chicken Cadherin19
# T3 chain: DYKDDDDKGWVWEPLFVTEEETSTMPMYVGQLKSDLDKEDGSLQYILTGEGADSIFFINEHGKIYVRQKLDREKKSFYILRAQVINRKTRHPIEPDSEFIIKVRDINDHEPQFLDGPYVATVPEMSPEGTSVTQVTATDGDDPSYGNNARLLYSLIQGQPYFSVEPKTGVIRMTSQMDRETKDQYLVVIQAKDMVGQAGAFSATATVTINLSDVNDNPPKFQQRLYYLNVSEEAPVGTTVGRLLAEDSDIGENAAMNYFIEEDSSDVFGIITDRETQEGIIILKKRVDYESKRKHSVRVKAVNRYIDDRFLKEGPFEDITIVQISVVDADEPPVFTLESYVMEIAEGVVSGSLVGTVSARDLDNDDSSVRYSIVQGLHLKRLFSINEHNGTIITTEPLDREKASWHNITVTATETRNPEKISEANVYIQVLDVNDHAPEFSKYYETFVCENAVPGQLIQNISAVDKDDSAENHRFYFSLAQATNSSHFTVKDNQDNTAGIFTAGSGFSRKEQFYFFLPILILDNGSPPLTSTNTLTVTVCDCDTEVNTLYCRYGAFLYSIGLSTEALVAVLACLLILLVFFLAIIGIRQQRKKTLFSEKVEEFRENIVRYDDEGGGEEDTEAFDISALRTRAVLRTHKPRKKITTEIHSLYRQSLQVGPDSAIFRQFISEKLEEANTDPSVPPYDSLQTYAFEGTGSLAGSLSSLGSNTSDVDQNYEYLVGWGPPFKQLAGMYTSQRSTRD
# Key:
# Assay in all cases: flow cytometry, transfected 293T cells, 2 mM CaCl2;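 note: binding of Alexa647-labelled anti-CDH19 antibodies to cells expressing human/chicken CDH19 chimeras, read as cell-bound fluorescence, with mock-transfected cells as controls, n.d. meaning not determined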
# [1] = molecular target: T1, ckCDH19(1-43)::FLAG::ckCDH19(44-141)::hu …
# Protocol: (§1) The experiment included assaying a subset of anti-CDH19 antibodies against chicken Cadherin19 to determine suitability for binning on these human/chicken chimeras.
# (§2) The following binding assay was completed in presence of 2 mM CaCl₂). […] Cells were then washed one time and the amount of cell associated Alexa647-labelled Ab was quantitated by flow cytometry. The experiments included mock transfected controls.
# [2] = molecular target: T4, huCDH19(1-43)::FLAG::hu(44-141)::ckCDH19(142-776) (construct K, Hu EC1) (human/chicken chimera)
# T4 construct: leader (1-43 of the entry) left out; also called huCDH19(44-141)::ckCDH19(142-776)
# Protocol: as §1, §2
# [3] = molecular target: T5, ckCDH19(1-43)::FLAG::ckCDH19(44-249)::huCDH19(250-364)::ckCDH19(365-776) (construct M, Hu EC3) (human/chicken chimera)
# T5 construct: leader (1-43 of the entry) left out
# Protocol: as §1, §2
# [4] = molecular target: T2, ckCDH19(1-43)::FLAG::ckCDH19(44-468)::hu …
# Protocol: as §1, §2
# [5] = molecular target: T3, ckCDH19(1-43)::FLAG::ckCDH19(44-776) …
# Protocol: as §1, §2
# [6] = molecular target: huCDH19(44-772) with Flag tag (construct A, Hu EC1-5) (human, UniProt Q9H159 44-772)
# Protocol: as §1, §2
Binder,binding result [1],binding result [2],binding result [3],binding result [4],binding result [5],binding result [6]
"hu anti-<huCDH19> 4A9 (Ab ID 13589) (antibody, human IgG1, lambda, V domains shown, huIgG1z / huLLC-C1; Bin 1) VH: QVQLQESGPGLVKPSETLSLTCTVSGGSISGYYWSWIRQPPGKGLEWFAYFSYSGSTNYNPSLKSRVTLSVDTSKNQFSLKLSSVTAADTAVYYCARNWAFHFDFWGQGTLVTVSS VL: QSVLTQPPSVSGAPGQRVTISCTGSSSNIGTGYAVHWYQQFPGTAPKLLIYGNNNRPSGVPDRFSGSKSGTSASLAITGLQAEDEADYYCQSYDSRLSGWVFGGGTKLTVLG",no binding (tested: 5 ug/ml),binds,no binding (tested: 5 ug/ml),no binding (tested: 5 ug/ml),no binding (tested: 5 ug/ml),binds
"hu anti-<huCDH19> 26D1.1 (Ab ID 13882) (antibody, human IgG1, lambda, V domains shown, huIgG1z / huLLC-C2; Bin 2) VH: QVQLVQSGAEVKKPGASVKVSCKASRYTFTSYYMSWVRQAPGQGLEWMGIIHPSGGDTTYAQKFQGRVTMTGDTSTSTVYMELSSLRSEDTAVYYCARGGIKLWLHFDYWGQGTLVTVSS VL: not shown",no binding (tested: 5 ug/ml),binds,no binding (tested: 5 ug/ml),no binding (tested: 5 ug/ml),no binding (tested: 5 ug/ml),binds
"hu anti-<huCDH19> 25F8.1 (1-469)(F90Y) VH::huIgG1z + 25F8.1 (1-235)(K45Q,S102A,D111E) VL::huLLC-C2 (Ab ID 14096) (antibody, V domains shown, Engineered variant of 25F8; the entries already carry the changes; Bin 2) VH: QVQLVQSGAEVKKPGASVKVSCKASGYTFTSYYIHWVRQAPGQGLEWMGIINPSGGSTRYAQKFQGRVTMTRDTSTSTVYMELSSLRSEDTAVYYCARGGIQLWLHFDYWGQGTLVTVSS VL: not shown",no binding (tested: 5 ug/ml),binds,no binding (tested: 5 ug/ml),no binding (tested: 5 ug/ml),no binding (tested: 5 ug/ml),binds
"hu anti-<huCDH19> 23A10.3 (1-474)(L92Q) VH::huIgG1z + 23A10.3 (1-231)(C42S) VL::huLLC-C2 (Ab ID 14077) (antibody, V domains shown, Engineered variant of 23A10; the entries already carry the changes; Bin 4) VH: QVQLVESGGGVVQPGRSLRLSCAASGFTFSRYGIHWVRQAPGKGLEWVAVIWYDGSNKYYADSVKGRFTISRDNSKNTLYLQMNSLRAEDSAVYYCARRAGIPGTTGYYYGMDVWGQGTTVTVSS VL: SYELTQPPSVSVSPGQTASITCSGDRLGEKYVSWYQQKPGQSPILVIYQDNKWPSGIPERFSGSNSGNTATLTISGTQAMDEADYYCQAWDSSTVVFGGGTKLTVLG",no binding (tested: 5 ug/ml),no binding (tested: 5 ug/ml),binds,no binding (tested: 5 ug/ml),no binding (tested: 5 ug/ml),binds
"hu anti-<huCDH19> 4B10 (Ab ID 13590) (antibody, V domains shown, huIgG1z / huKLC; Bin 4) VH: QVQLVESGGGVVQPGRSLRLSCAASGFTFSSYDMHWVRQAPGKGLEWVAVISYDGTNEYYADSVKGRFTISRDTSKNTLYLQMNSLRAEDTAVYYCARERYFDWSFDYWGQGTLVSVSS VL: EIVLTQSPGTLSLSPGERATLSCRASQSVSNTYLAWYHQRPGQAPRLLIYGASSRATGIPDRFSGSGSGTDFALTISSLEPEDFAVYYCQQYSNSWTFGQGTKVEIKR",no binding (tested: 5 ug/ml),no binding (tested: 5 ug/ml),binds,no binding (tested: 5 ug/ml),no binding (tested: 5 ug/ml),binds

# Next, values leading:
binding result [1],binding result [2],binding result [3],binding result [4],binding result [5],binding result [6],Binder
no binding (tested: 5 ug/ml),no binding (tested: 5 ug/ml),–,no binding (tested: 5 ug/ml),no binding (tested: 5 ug/ml),–,"anti-CDH19 antibody 4A2 (Ab ID 13592) (antibody, human IgG1, kappa, V domains shown, Bin 4) VH: QVQLQESGPGLVKPSQTLSLTCTVSGGSISSSGYYWSWIRQHPGKGLEWIGYIYYTGSAYYNPSLKSRVTISVDTSKNQFSLKLSSVTAADTAVYYCARDGSSGWYFQYWGQGTLVTVSS VL: EIVLTQSPGTLSLSPGERATLSCRASRNISSSYLAWYQQKPGQAPRLLIYGPSSRATGIPDRFSGSGSGTDFTLTISRLEPEDFTVYYCQQYGSSFTFGPGTKVDIKR"
no binding (tested: 5 ug/ml),no binding (tested: 5 ug/ml),binds,no binding (tested: 5 ug/ml),no binding (tested: 5 ug/ml),binds,"anti-CDH19 antibody 2G6 (Ab ID 13588) (antibody, human IgG1, lambda, V domains shown, Bin 4) VH: QVQLVESGGGVVQPGRSLRLSCAASGFTFSSYGMHWVRQAPGKGLEWVAFIWYDGSNKYYADSVKDRFTISRDNSKNTLYLQMKSLRAEDTAVYYCARRAGIIGTIGYYYGMDVWGQGTTVTVSS VL: SYELTQPPSVSVSPGQTASITCSGDRLGEKYTCWYQQRPGQSPLLVIYQDTKRPSGIPERFSGSNSGNTATLTISGTQAMDEADYYCQAWDSSTVVFGGGTKLTVLG"
